This is an account of results in patent US20230002466A1 (ELPIS BIOPHARMACEUTICALS, published 2023).

The target in assay [1] is T1, human IL2Rβ (human, UniProt P14784 27-239).
T1 construct: also called IL2β; CD122
T1 sequence (looked up): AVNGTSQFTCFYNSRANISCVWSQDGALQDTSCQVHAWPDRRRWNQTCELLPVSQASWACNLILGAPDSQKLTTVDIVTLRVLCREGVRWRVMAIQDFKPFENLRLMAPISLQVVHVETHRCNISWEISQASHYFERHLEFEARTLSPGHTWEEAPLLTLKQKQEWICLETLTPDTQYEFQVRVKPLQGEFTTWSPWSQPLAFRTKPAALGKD
In words: SPR, IL2Rβ captured on Protein A chip. Here is the method:
The assay was run with Biacore T200 control software version 2.0. For each cycle, 1 ug/mL of human IL2Rβ was captured for 60 seconds at flow rate of 10 uL/min on flow cell 2 in 1×HBSP buffer on Protein A sensor chip. 100 nM of HIS and Flag tag purified each IL2 mutant was 2-fold serial diluted and injected onto both reference flow cell 1 and IL2Rβ captured flow cell 2 for 150 seconds at flow rate of 30 uL/min followed by washing for 300 seconds. The flow cells were then regenerated with Glycine pH2 for 60 seconds at a flow rate of 30 uL/min. The assay was set up with 8 serial diluted concentration points in 96-well format. The kinetics data was analyzed with Biacore T200 evaluation software 3.0. The specific binding response unit was derived from subtraction of binding to reference flow cell 1 from target flow cell 2 (FIGS. 16A-16F, Table 10).
Background: Surface plasmon resonance follows binding to a sensor surface in real time, without labels.

Assay [2] deals with T2, human IL2Rβ Fc fusion protein (human, UniProt P14784 27-239).
T2 construct: also called Recombinant Fc-tagged human IL2Rβ; not shown: Fc
T2 sequence (looked up): T1 sequence (looked up)
In words: ELISA, receptor-Fc coated, anti-Flag HRP. In outline: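 Plates coated overnight at 4 C with IL2Rα or IL2Rβ Fc fusion at 2 ug/mL, then blocked. Flag-tagged IL2 mutant dilutions were added in duplicate, and binding was detected with anti-Flag HRP (1:5000) and TMB for 5 min. EC50 was fitted from OD450.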
Background: An ELISA detects its analyte on a solid surface through an enzyme-linked reagent.

For assay [3], the target named is T2, human IL2Rβ Fc fusion protein. In words: ELISA, Fc-tagged receptor coated, anti-HisTag-HRP. In outline:
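IL2 mutants, diluted from 1000 nM to 0 nM, were incubated 2 h at RT on plates coated overnight at 4 °C with Fc-tagged human IL2Rα (or IL2Rβ). Bound protein detected with anti-HisTag-HRP (1:5000, 1 h) and TMB. Absorbance read at 450 nm after acid stop.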

The target of assay [4] is T1, human IL2Rβ. The assay can be described thus: SPR, receptor captured on Protein A chip, E. coli-produced IL2.
Assay [5] has as its target T1, human IL2Rβ. The assay can be described thus: SPR, receptor captured on Protein A chip, mammalian-produced IL2. The method, then:
The assay was run with Biacore T200 control software version 2.0. For each cycle, 1 μg/mL of human IL2Rβ or IL2Rα was captured for 60 seconds at flow rate of 10 μL/min on flow cell 2 in 1×HBST buffer on Protein A sensor chip. Two-fold serial diluted HIS tag purified engineered IL2 mutant was injected onto both reference flow cell 1 and IL2Rβ or IL2Rα captured flow cell 2 for 150 seconds at flow rate of 30 μL/min followed by washing for 300 seconds. The flow cells were then regenerated with Glycine pH 2 for 40 seconds at a flow rate of 30 μL/mins. Eight concentration points from 0 to 100 nM were assayed for each IL2Rβ agonist clone 96-well plate format. The kinetics data was analyzed with Biacore T200 evaluation software 3000. The specific binding response unit was derived from subtraction of binding to reference flow cell 1 from target flow cell 2.

Assay [6] has as its target T3, human IL2Rα Fc fusion protein (human, UniProt P01589 22-213, limits assumed).
T3 construct: also called Recombinant Fc-tagged human IL2Rα; not shown: Fc
T3 sequence (looked up): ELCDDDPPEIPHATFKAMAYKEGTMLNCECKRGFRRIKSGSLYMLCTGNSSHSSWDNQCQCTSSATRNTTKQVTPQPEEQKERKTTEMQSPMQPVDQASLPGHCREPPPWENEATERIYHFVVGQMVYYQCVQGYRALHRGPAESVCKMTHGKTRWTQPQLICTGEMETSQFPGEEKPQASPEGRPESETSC
In words: ELISA, receptor-Fc coated, anti-Flag HRP; Table 9 ELISA: titration 100 nM to 0 nM, anti-Flag HRP detection. The method, then:
Briefly, 384 well plate was immobilized with human IL2Rα and IL2Rβ Fc fusion proteins at a final concentration of 2 ug/mL in 1×PBS in total volume of 25 uL per well. The plate was incubated overnight at 4 C and blocked with 80 uL of superblock per well for 1 hour. […] Each dilution was added to IL2Rα or IL2Rβ wells in parallel in duplicates. The IL2 mutant binding was detected by adding 25 uL of anti-Flag HRP diluted at 1:5000 in 1×PBST. In between each step, the plate was washed three times with 1×PBST using a plate washer. The plate was then developed with 25 uL of TMB substrate for five minutes and stopped by adding 25 ul of 2N sulfuric acid. The plate was read at OD450 nm Biotek plate reader and the EC50 was analyzed with Prism 8.1 software to generate EC50 values (FIG. 15A for IL2Rα, and FIG. 15B for IL2Rβ, summarized in Table 9).

B1: EP001 (ligand)
chain: APTSSSTKKTQLQLEHLLLDLQMILNGINNYKNPKLTRMLTFKFYMPKKATELKHLQCLEEELKPLEEVLNLAQSKNFHLTARDAVDNMRVIIQELKGSETTFMCEYADETATIVEFLNRWITFCQSIISTLT
notes: Produced in E. coli or mammalian cells; also called EP0001; not shown: C-terminal Flag and 6xHis tags
For orientation: Kd means the free concentration of one partner at which half of the binding sites on the other are occupied at equilibrium, for simple one-to-one binding. The low end stands for tighter binding, the high end for weaker binding. What is called koff is the first-order rate constant of dissociation. By kon is commonly meant the rate constant with which the complex forms. Low values mean slower complex formation, high ones faster complex formation. A word on the EC50: it is the concentration needed to bring the measured effect to its halfway point. A high value points to a less potent agent. In the case of B1, the Kd in the assay with human IL2Rβ [1] was 1.52 nM; with human IL2Rβ [4] it was 1.12 nM; with human IL2Rβ [5] it was 0.743 nM. The koff came to 0.00589 s⁻¹ with human IL2Rβ [1], 0.00365 s⁻¹ with human IL2Rβ [4] and 0.00417 s⁻¹ with human IL2Rβ [5]. Further, the kon with human IL2Rβ [1] was determined as 3.86e+06 M⁻¹ s⁻¹; with human IL2Rβ [4] it was 3.26e+06 M⁻¹ s⁻¹; in the assay with human IL2Rβ [5], 5.61e+06 M⁻¹ s⁻¹. Besides, the EC50 in assay [2] was found to be 0.7 nM; in assay [3], 8.1 nM; in assay [6] it was 259 nM. Further, the “relative activity IL2Rβ (KD: fold) against WT IL2” value in the assay with human IL2Rβ [4] was 3890 fold; in the assay with human IL2Rβ [5], 1360 fold.
